Four molecules from paper PMC9687869, “Redox Regulation of Signaling Complex between Caveolin-1 and Neuronal Calcium Sensor Recoverin” (Biomolecules, 2022) can be followed below.

The labels stand for the following.
B1: disulfide dimer of recoverin (dRec) (natural protein)
chain: GNSKSGALSKEILEELQLNTKFTEEELSSWYQSFLKECPSGRITRQEFQTIYSKFFPEADPKAYAQHVFRSFDANSDGTLDFKEYVIALHMTSAGKTNQKLEWAFSLYDVDGNGTISKNEVLEIVTAIFKMISPEDTKHLPEDENTPEKRAEKIWGFFGKKDDDKLTEKEFIEGTLANKEILRLIQFEPQKVKEKLKEKKL
modifications: N-terminal myristoyl group; disulfide between the cysteine-39 residues of the two chains
B2: recoverin C39D mutant (Rec-C39D) (natural protein, UniProt P21457 1-202, looked up)
chain: MGNSKSGALSKEILEELQLNTKFTEEELSSWYQSFLKEDPSGRITRQEFQTIYSKFFPEADPKAYAQHVFRSFDANSDGTLDFKEYVIALHMTSAGKTNQKLEWAFSLYDVDGNGTISKNEVLEIVTAIFKMISPEDTKHLPEDENTPEKRAEKIWGFFGKKDDDKLTEKEFIEGTLANKEILRLIQFEPQKVKEKLKEKKL
modifications: N-terminal myristoyl group (myristoylation rate more than 95%)
notes: recoverin with C39D, which mimics oxidation of cysteine-39 to a sulfenic/sulfinic/sulfonic group; also called thiol oxidation mimicking mutant; oxidized monomer mimic
B3: N-terminal fragment of caveolin-1 M1-R101 with N-terminal His6-tag (Cav) (domain or fragment, UniProt Q03135 1-101, looked up)
chain: MSGGKYVDSEGHLYTVPIREQGNIYKPNNKAMADELSEKQVYDAHTKEIDLVNRDPKHLNDDVVKIDFEDVIAEPEGTHSFDGIWKASFTTFTVTKYWFYR
notes: caveolin-1, N-terminal domain and oligomerization domain, residues M1-R101; Forms homogeneous oligomers in solution by DLS; the number of copies was not measured; It names pET-22b and an N-terminal His6-tag; also called Cav (1-101 aa) fragment; caveolin-1 fragment; source: E. coli BL21 Star (DE3), solubilised in guanidine hydrochloride, dialysed, purified (Ni-NTA)

Holding throughout (details): both partners purified
Assay [1] concerns the target B3. Description: pull-down; Cav or CavE covalently attached to BrCN-activated Sepharose CL-4B; 50 ug recoverin form; 20 mM Tris-HCl pH 7.5, 100 mM NaCl, 2 mM MgCl2, 2 mM EGTA (calcium-free); 30 min at room temperature; bound protein analysed by SDS-PAGE.
Assay [2] has as its target B1. The experiment in a line: SPR; Cav or CavE immobilised by amine coupling (ProteOn GLH chip); analyte 2.5-30 uM recoverin form; 10 mM HEPES pH 7.4, 150 mM NaCl, 2 mM DTT (none for dRec), 0.05% TWEEN 20, calcium-free (1 mM EDTA in the methods, 2 mM EGTA in Table 2); 25 C; heterogeneous ligand model.
Assay [3] has as its target T1, recombinant myristoylated recoverin, reduced monomer (Rec) (UniProt P21457 1-202, N-terminal myristoyl group (myristoylation rate more than 95%)).
T1 construct: recoverin, photoreceptor neuronal calcium sensor; also called intact recoverin; wild-type recoverin
T1 sequence (looked up): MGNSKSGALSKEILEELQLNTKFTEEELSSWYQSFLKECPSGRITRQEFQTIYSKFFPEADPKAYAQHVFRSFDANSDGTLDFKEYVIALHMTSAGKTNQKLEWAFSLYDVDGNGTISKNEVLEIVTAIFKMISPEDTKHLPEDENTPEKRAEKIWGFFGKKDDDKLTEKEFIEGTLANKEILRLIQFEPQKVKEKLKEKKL
The assay is described as above.

Assay [4] addresses B2. The description is as above.
For assay [5], the target named is B2. Description: SPR; Cav or CavE immobilised by amine coupling (ProteOn GLH chip); analyte 2.5-30 uM recoverin form; 10 mM HEPES pH 7.4, 150 mM NaCl, 2 mM DTT (none for dRec), 0.05% TWEEN 20, with calcium (1 mM CaCl2 in the methods, 2 mM Ca2+ in Table 2); 25 C; heterogeneous ligand model.

For B1, in assay [1], the “fold increase of the interaction against Rec (pull-down)” value lay in the range of 2 to 3 fold.
Same read-out and setting: as for B2, the figure is 2 to 3 fold.
B3: the equilibrium dissociation constant (Kd) in assay [2] was found to be 48.6 ± 1.1 nM; in assay [3] it was 490 ± 160 nM; in assay [4], 140 ± 44 nM; in assay [5] it was 376 ± 173 nM. In addition, the off-rate constant (koff) in assay [2] worked out at 2.44e-05 s⁻¹; in assay [3] it was 0.000105 s⁻¹; in assay [4], 0.000117 s⁻¹; in assay [5], 0.000186 s⁻¹.

B4: N-terminally tagged caveolin-1 fragment M1-R101 with Y14E substitution (CavE) (domain or fragment, UniProt Q03135 1-101, looked up)
chain: MSGGKYVDSEGHLETVPIREQGNIYKPNNKAMADELSEKQVYDAHTKEIDLVNRDPKHLNDDVVKIDFEDVIAEPEGTHSFDGIWKASFTTFTVTKYWFYR
notes: caveolin-1, residues M1-R101 with Y14E, which mimics phosphorylation at Y14; built on Cav; Forms larger oligomeric particles than Cav by DLS; also called caveolin-1 mutant Y14E; source: E. coli BL21 Star (DE3), solubilised in guanidine hydrochloride, dialysed, purified (Ni-NTA)
Regarding B4, the dissociation constant Kd in assay [2] was found to be 218 ± 87 nM; in assay [3] it was 1110 ± 66 nM; in assay [4], 329 ± 145 nM; in assay [5], 629 ± 257 nM. Further, the koff was determined as 8.08e-05 s⁻¹ in assay [2], 8.81e-05 s⁻¹ in assay [3], 0.000172 s⁻¹ in assay [4] and 0.000202 s⁻¹ in assay [5].
